The values below are quoted from earlier work in article PMC3763834.

For this data set, the target named is PKA catalytic subunit (UniProt P17612).

“And” between values parts separate entries of the source, which are not always exact repeats. Equal entries are not always repeated.

With PKA RII subunit (from UniProt P13861), the dissociation constant Kd (commonly the concentration at which binding is half-saturated) was 1 nM and 0.1 nM.
